Results reported in US20240327523A1 (University of California, published 2024).

B1: JLS002-rAB23 Fab (Fab, V domains shown)
VH: EVQLVESGGGLVQPGGSLRLSCAASGFNVYSSSIHWVRQAPGKGLEWVASISSYSGSTSYADSVKGRFTISADTSKNTAYLQMNSLRAEDTAVYYCARYGYYMSGAMDYWGQGTLVTVSS
VL: DIQMTQSPSSLSASVGDRVTITCRASQSVSSAVAWYQQKPGKAPKLLIYSASSLYSGVPSRFSGSRSGTDFTLTISSLQPEDFATYYCQQKKAYSLITFGQGTKVEIK
notes: Fab expressed and purified after phage selection
B2: JLS002-rAB23 IgG (antibody, V domains shown)
VH: B1 VH
VL: B1 VL
notes: also called JSI002 rab 23
B3: JLS002-rAB22 Fab (Fab, V domains shown)
VH: EVQLVESGGGLVQPGGSLRLSCAASGFNVYSSSIHWVRQAPGKGLEWVAYISSYSGYTYYADSVKGRFTISADTSKNTAYLQMNSLRAEDTAVYYCARGRYQGMDYWGQGTLVTVSS
VL: DIQMTQSPSSLSASVGDRVTITCRASQSVSSAVAWYQQKPGKAPKLLIYSASSLYSGVPSRFSGSRSGTDFTLTISSLQPEDFATYYCQQYAYHLITFGQGTKVEIK
notes: as for B1
B4: JLS002-rAB22 IgG (antibody, V domains shown)
VH: B3 VH
VL: B3 VL
notes: also called rab22 JIS002 rab 22

Assays:
[1] = biological target: T1, Fc-CD94 (biotinylated Fc fusion protein with the extracellular domain of human CD94 fused at the C-terminal … (human, UniProt Q13241 32-179, biotinylated on the biotin-acceptor-tag (~90% biotinylation))); test: multipoint ELISA of purified Fab
T1 construct: extracellular domain; Expressed in Expi293 cells; also called CD94 Fc fusion protein; Fc-CD94 fusion protein; not shown: biotin-acceptor-tag at the N-terminus; human IgG1 Fc; TEV proteolysis site between the ECD and Fc-domain
T1 sequence (looked up): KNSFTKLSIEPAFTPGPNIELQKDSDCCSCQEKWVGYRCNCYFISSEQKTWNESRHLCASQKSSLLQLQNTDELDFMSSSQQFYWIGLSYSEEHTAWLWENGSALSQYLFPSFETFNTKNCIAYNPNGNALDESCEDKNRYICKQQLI

[2] = biological target: T2, Fc-CD94 (biotinylated Fc fusion protein with the extracellular domain of human CD94 fused at the C-terminal … (human, UniProt Q13241 32-179, biotinylated on the biotin-acceptor-tag (~90% biotinylation))); test: ELISA
T2 chain: T1 sequence (looked up)

[3] = biological target: T2, Fc-CD94 (biotinylated Fc fusion protein …); test: BLI (Octet)
[4] = biological target: T3, human CD94 expressed on Ba/F3 cells (human, UniProt Q13241 1-179); test: flow cytometry staining of Ba/F3 transfectants, PE-conjugated anti-human IgG1
T3 construct: whole, on cells; Mouse Ba/F3 cells stably transduced with a retroviral vector encoding human CD94; also called Ba/F3 transfectants expressing human CD94
T3 sequence (looked up): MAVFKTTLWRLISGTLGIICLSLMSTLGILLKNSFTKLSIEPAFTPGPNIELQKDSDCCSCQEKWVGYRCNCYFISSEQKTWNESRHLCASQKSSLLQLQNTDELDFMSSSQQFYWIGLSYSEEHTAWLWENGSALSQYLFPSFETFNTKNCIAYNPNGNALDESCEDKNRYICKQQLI
Experimental: Mouse Ba/F3 cells were stably transduced with retroviral vectors encoding human CD94 or with human CD94, human NKG2C, and human DAP12 as described in Lanier, L. L., B. C. Corliss, J. Wu, and J. H. Phillips. 1998. Association of DAP12 with activating CD94/NKG2C NK cell receptors. Immunity 8:693-701. PMID: 9655483. The Ba/F3 transfectants were incubated with phosphate buffered saline (unstained) or with the rab22 JIS002 rab 22 or JSI002 rab 23 antibodies, washed, and then stained with PE-conjugated anti-human IgG1 using standard methods.

[5] = biological target: T1, Fc-CD94 (biotinylated Fc fusion protein …); test: assay not given; IgG affinity was measured by Octet BLI on immobilized Fc-CD94 (FIG. 3)
Experimental: An octet assay was used to measure the affinity of IgG for the two binders JLS002-rAB22 and JLS002-rAB23. An Octet RED384 (ForteBio) instrument was used to measure the affinity of IgG for the two binders, JLS002-rAB22 and JLS002-rAB23. Fc-CD94 fusion protein was immobilized on a bio-layer interfrometry biosensor coated with streptavidin.
After blocking with PBST buffer (PBS+[…]) containing 10 μM of biotin, the IgGs being tested were loaded for 15 minutes followed by change to PBST buffer without IgG for ˜30 minutes. The kinetic binding curve was recorded.

Row | Binder | binding result [1] | EC50 [2] | Kd [3] | binding result [4] | binding result [5]
1 | B1 | binds | 2.98 nM |  |  | 
2 | B2 |  |  | 0.94 nM | binds | binds
3 | B3 | binds | 3.42 nM |  |  | 
4 | B4 |  |  | 1.74 nM | binds | binds
